Measurements: article PMC3923439, “Anti-inflammatory properties of a novel peptide interleukin 1 receptor antagonist” (Journal of Neuroinflammation, 2014)
No end group written: not given here.

Assays:
AMJ2-C8 macrophages = test: TNF-α secretion from IL-1β-activated macrophages (L929 bioassay); assay type: cell-based, mouse; conditions: 1.2 pM IL-1β, 24 hours; TNF-α by L929 survival with actinomycin D; hydrocortisone at 100 μM
Procedure: A murine alveolar macrophage cell line, AMJ2-C8 (American Type Culture Collection, Borås, Sweden), was routinely grown at 37°C with 5% CO2 in DMEM supplemented with 5% (vol/vol) FCS, 0.5% (v/v) 2-[4-(2-hydroxyethyl)piperazin-1-yl]ethanesulfonic acid (HEPES) (Gibco BRL), 2 mM GlutaMAX, 100 U/ml penicillin and 100 μg/ml streptomycin.
AMJ2-C8 macrophages were seeded into six-well multidishes at a density of 2.5 × 10^5 cells/well, and sIL-1RI, IL-1Ra or various concentrations of Ilantide were added to the cultures. Treatment with 100 μM hydrocortisone (Sigma-Aldrich, Brøndby, Denmark) was used as a positive control. After 10-minute incubation at 37°C, 1.2 pM IL-1β or IFN-γ (R&D Systems) was added to activate the macrophages. L929 cells were seeded onto a 96-well plate (Nunc, Roskilde, Denmark) at a density 0.2 × 10^2 cells/ml. Both cell cultures were incubated for 24 hours at 37°C. Conditioned medium from macrophages was collected and added to the L929 cell cultures together with actinomycin D (0.6 μg/well; Sigma-Aldrich). TNF-α is known to induce classic apoptosis in L929 cells in the presence of actinomycin D [12]. After 24-hour incubation at 37°C, 20 μl of 3-(4,5-dimethylthiazol-2-yl)-5-(3-carboxymethoxyphenyl)-2-(4-sulfophenyl)-2H-tetrazolium (Promega, Madison, WI, USA) were added to each well and incubated at 37°C in the dark for 45 minutes, then measured in an ELISA reader at 490 nm. To calculate the amount of TNF-α in the conditioned medium, fibroblasts were treated with standard concentrations of TNF-α (R&D Systems).

[1] = system: Cerebellar granule neurons; test: Survival of cerebellar granule neurons induced to undergo apoptosis by low potassium; assay type: cell-based, rat; conditions: 5 mM KCl, survival estimated 48 hours later
Procedure: (§1) Cerebellar granule neurons (CGNs) were prepared from 7-day-old Wistar rats (from Charles River Laboratories, Sulzfeld, Germany; or from Hygind Møllegård Erik Møllegaard Hansen, Ejby, Denmark) as previously described. Briefly, the cerebella were cleared of meninges and blood vessels, roughly homogenized by chopping and trypsinized. The cells were washed in the presence of DNAse I and soybean trypsin inhibitor (Sigma-Aldrich, St Louis, MO, USA), and cellular debris was pelleted by centrifugation. The fibroblastoid mouse cell line L929 (LVN; European Collection of Cell Cultures, Porton Down, UK) was routinely grown at 37°C with 5% CO2 in DMEM supplemented with 10% (vol/vol) FCS, 2 mM GlutaMAX, 100 U/ml penicillin and 100 μg/ml streptomycin.
(§2) Cerebellar granule neurons were plated at a density of 1 × 10^5 cells/cm^2 on poly-L-lysine-coated, eight-well Permanox Lab-Tek chamber slides (Nunc) in Neurobasal-A medium supplemented with 2% (vol/vol) B27 (Gibco BRL), 0.5% (vol/vol) GlutaMAX, 100 U/ml penicillin and 100 μg/ml streptomycin. The CGN survival assay was performed as previously described. The neurite outgrowth assay was also performed as previously described.
Figure 5 Effect of Ilantide and interleukin 1 receptor antagonist on survival of cerebellar granule neurons induced to undergo apoptosis. The neurons were allowed to differentiate for 7 days in a high-potassium (40 mM) medium before apoptosis was induced by changing to a low-potassium medium (5 mM). Survival was estimated 48 hours later. (A) The effect of insulin-like growth factor 1 (IGF-1), interleukin 1 receptor antagonist (IL-1Ra) and IL-1β on cerebellar granule neuron (CGN) apoptosis induced by 5 mM KCl. (B) The effect of Ilantide-m on CGN apoptosis induced by 5 mM KCl. […] The results from at least four independent experiments are expressed as mean ± SEM with untreated cultures induced to undergo apoptosis by 5 mM KCl set at 100%. *P < 0.05 and **P < 0.01 compared with untreated cultures induced to undergo apoptosis (one-way analysis of variance followed by Newman-Keuls post hoc test).

[2] = system: Cerebellar granule neurons; test: Neurite outgrowth from cerebellar granule neurons; assay type: cell-based, rat; conditions: for Neurite outgrowth from CGNs: 7-day-old CGNs grown on fibroblast cells, 24 hours
Procedure: as §1, §2
Figure 6 Effect of Ilantide on neurite outgrowth from cerebellar granule neurons. Cerebellar granule neuron cultures were treated with interleukin 1 receptor antagonist (IL-1Ra) (A), soluble interleukin 1 receptor type I (sIL-1RI) (B), Ilantide-t (C) or IL-1β (D) for 24 hours. The cultures were fixed and immunostained with rabbit anti-rat growth-associated protein 43 (anti-GAP-43) primary antibodies and then with secondary Alexa Fluor 488 goat anti-rabbit antibodies. (E) Effect of IL-1β on neurite outgrowth induced by IL-1Ra. (F) Effect of IL-1β on neurite outgrowth induced by Ilantide-t. The results from three to four independent experiments are expressed as percentage ± SEM with untreated controls set at 100%, corresponding to an average neurite length of 19.3 ± 4.1 μm. *P < 0.05 and **P < 0.01 compared with untreated controls (A to D) or cultures treated with either IL-1Ra or Ilantide alone (E and F) by one-way analysis of variance followed by the Newman-Keuls post hoc test).

ectodomain of IL-1RI = target: T1, ectodomain of IL-1RI (Homo sapiens, UniProt P14778); test: Surface plasmon resonance binding of immobilized ligand to recombinant IL-1RI ectodomain; conditions: SPR, Biacore 2000, ligand immobilized on CM4 chip, IL-1RI ectodomain injected, 25°C
T1 construct: the recombinant ectodomain of IL-1RI (R&D Systems) was injected; purchased R&D Systems
T1 sequence (P14778 18-336 limits assumed): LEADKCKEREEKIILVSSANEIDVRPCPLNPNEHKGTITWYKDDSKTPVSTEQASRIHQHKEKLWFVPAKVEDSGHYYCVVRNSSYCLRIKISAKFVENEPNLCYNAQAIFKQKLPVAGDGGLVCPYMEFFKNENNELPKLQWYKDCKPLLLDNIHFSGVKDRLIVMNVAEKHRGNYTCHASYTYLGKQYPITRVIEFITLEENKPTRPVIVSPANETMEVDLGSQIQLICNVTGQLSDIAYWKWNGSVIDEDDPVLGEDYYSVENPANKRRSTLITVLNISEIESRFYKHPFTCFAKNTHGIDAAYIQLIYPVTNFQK
Procedure: (§3) The binding analysis was performed using a Biacore 2000 instrument (GE Healthcare Life Sciences) that contained 150 mM NaCl as running buffer at 25°C with 10 mM sodium phosphate (pH 7.4). The flow rate was 5 μl/min during immobilization. Ilantide peptide, IL-1β or IL-1Ra was immobilized on a CM4 sensor chip according to the manufacturer’s instructions, after which the recombinant ectodomain of IL-1RI (R&D Systems) was injected. The neural cell adhesion molecule (NCAM) immunoglobulin modules 1 and 2 (Ig1 and Ig2) were used as a negative control protein [9]. The data were analyzed using nonlinear curve-fitting with the manufacturer’s software.

[3] = system: double-Ig module (Ig1-Ig2) of NCAM; test: Surface plasmon resonance, negative control protein; assay type: binding; conditions: SPR
Procedure: as §3

[4] = system: HEK-Blue IL-1β cells (IL-1RI / NF-κB); test: IL-1β-induced NF-κB activation, SEAP reporter; assay type: cell-based; conditions: 1.2 pM IL-1β, 24 hours, SEAP read at 600 nm, four independent experiments
Procedure: HEK-Blue IL-1β cells that contained an IL-1β-sensitive reporter (InvivoGen, San Diego, CA, USA) and HEK-Blue IL-6 cells that contained an IL-6-sensitive reporter (InvivoGen) were grown at 37°C with 5% CO2 in Dulbecco’s modified Eagle’s medium (DMEM) supplemented with 5% (vol/vol) fetal calf serum (FCS), 4.5 g/L glucose, 2 mM GlutaMAX medium, 100 U/ml penicillin, 100 μg/ml streptomycin (all obtained from Gibco BRL/Life Technologies, Taastrup, Denmark), 100 μg/ml zeocin, 200 μg/ml hygromycin and 100 μg/ml Normocin (all purchased from InvivoGen).
HEK-Blue IL-1β cells allow the monitoring of the activation of the NF-κB pathway specifically in response to IL-1β. They express a NF-κB-inducible secreted embryonic alkaline phosphatase (SEAP) reporter gene. The binding of IL-1β to its receptor IL-1RI on the surface of HEK-Blue IL-1β cells triggers a signaling cascade that leads to the activation NF-κB and the subsequent production of SEAP. HEK-Blue IL-1β cells were grown as described above. The cells were seeded onto a 96-well plate at a density 3.5 × 10^5 cells/ml. For the NF-κB activation assay, the cells were treated with 1.2 pM IL-1β alone or together with sIL-1RI, IL-1Ra or various concentrations of Ilantide. After 24 hours of incubation at 37°C, 150 μl of the cell supernatants were added to each well of a 96-well plate together with 50 μl of QUANTI-Blue (InvivoGen), incubated at 37°C for 40 minutes and measured in an enzyme-linked immunosorbent assay (ELISA) reader at 600 nm to determine the expression levels of reporter genes activated by NF-κB.

[5] = target: T2, recombinant ectodomain of IL-1 receptor type I (IL-1RI) (UniProt P14778 18-336); test: SPR; Biacore 2000; about 2,500 to 3,000 RU of Ilantide-t, IL-1β or IL-1Ra immobilised on a CM4 sensor chip; IL-1RI ectodomain (or NCAM Ig1-Ig2 as negative control) injected; 25°C, 10 mM sodium phosphate pH 7.4, 150 mM NaCl; apparent Kd; conditions: both partners purified
T2 construct: interleukin 1 receptor type I, ectodomain; No catalogue number, limits or tag are printed for the bought protein; also called sIL-1RI; soluble IL-1 receptor type I; source: bought: R&D Systems
T2 sequence (looked up): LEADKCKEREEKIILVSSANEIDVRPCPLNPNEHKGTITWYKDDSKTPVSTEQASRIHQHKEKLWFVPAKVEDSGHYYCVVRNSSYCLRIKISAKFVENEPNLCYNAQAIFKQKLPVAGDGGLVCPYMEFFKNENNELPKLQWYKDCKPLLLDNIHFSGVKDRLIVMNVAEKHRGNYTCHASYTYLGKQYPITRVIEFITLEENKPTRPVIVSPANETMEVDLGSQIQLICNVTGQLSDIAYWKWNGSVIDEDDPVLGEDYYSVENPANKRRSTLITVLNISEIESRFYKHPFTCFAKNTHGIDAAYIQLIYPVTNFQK

C[C@]12CCC(=O)C=C1CC[C@@H]1[C@@H]2[C@@H](O)C[C@@]2(C)[C@H]1CC[C@]2(O)C(=O)CO [hydrocortisone, reference compound]
Inhibition of IL-1β-induced TNF-α secretion in macrophages (AMJ2-C8 macrophages): completely inhibited

IGF-1: insulin-like growth factor 1, positive control [reference compound]
CGN survival after potassium withdrawal [1]: inhibited

IL-1β: recombinant interleukin 1β
Neurite outgrowth from CGNs [2]: did not have neuritogenic effects | Effect on the neuritogenic effect of both IL-1Ra and Ilantide-t ([2]; IL-1β at 1.5 nM and 7.5 nM): significantly inhibited | k a (ectodomain of IL-1RI; 10 mM sodium phosphate pH 7.4, 150 mM NaCl): 8.56 ± 2.79 × 10^5 M^-1 s^-1 | k d (ectodomain of IL-1RI; pH 7.4): 7.53 ± 2.03 × 10^-4 s^-1 | Binding to double-Ig module of NCAM (negative control) [3]: no significant binding

B1: sIL-1RI: soluble IL-1 receptor type I (recombinant ectodomain of IL-1RI) (protein)
chain: LEADKCKEREEKIILVSSANEIDVRPCPLNPNEHKGTITWYKDDSKTPVSTEQASRIHQHKEKLWFVPAKVEDSGHYYCVVRNSSYCLRIKISAKFVENEPNLCYNAQAIFKQKLPVAGDGGLVCPYMEFFKNENNELPKLQWYKDCKPLLLDNIHFSGVKDRLIVMNVAEKHRGNYTCHASYTYLGKQYPITRVIEFITLEENKPTRPVIVSPANETMEVDLGSQIQLICNVTGQLSDIAYWKWNGSVIDEDDPVLGEDYYSVENPANKRRSTLITVLNISEIESRFYKHPFTCFAKNTHGIDAAYIQLIYPVTNFQK
Inhibition of IL-1β-induced TNF-α secretion in macrophages (AMJ2-C8 macrophages): significantly inhibited | Inhibition of NF-κB activation induced by IL-1β [4]: dose-dependently inhibited | Neurite outgrowth from CGNs [2]: significantly induced neurite outgrowth

B2: Ilantide-t (peptide)
peptide: SGRKSSKMQA
modifications: also: dendrimer of four monomers coupled to a lysine backbone
notes: ten residues from the N terminus of human IL-1 receptor antagonist (IL-1Ra); Four copies of the peptide on a lysine backbone; also called IL-1 antagonistic peptide (dendrimer form); source: synthetic peptide; bought: Schafer-N; further purified by gel filtration (Sephadex G-10)
Kd [5]: 27.5 nM | koff [5]: 0.00269 s⁻¹ | kon [5]: 184000 M⁻¹ s⁻¹
